Reference: the DeepSol protein solubility set

Assay: soluble on expression in E. coli; label from the status in PepcDB or PDB records

Sequence	soluble on expression in E. coli
MSSTLREASKDTLQAKDKTYHYYSLPLAAKSLGDIARLPKSLKVLLENLLRWQDGESVTDEDIQALAGWLKNAHADREIAWRPARVLMQDFTGVPAVVDLAAMREAVKRLGGDTSKVNPLSPVDLVIDHSVTVDHFGDDDAFEENVRLEMERNHERYMFLKWGKQAFSRFSVVPPGTGICHQVNLEYLGKAVWSELQDGEWIAYPDSLVGTDSHTTMINGLGVLGWGVGGIEAEAAMLGQPVSMLIPDVVGFKLTGKLREGITATDLVLTVTQMLRKHGVVGKFVEFYGDGLDSLPLADRATIANMSPEYGATCGFFPIDAITLEYMRLSGRSDDLVELVETYAKAQGMWRNPGDEPVFTSTLELDMGDVEASLAGPKRPQDRVALGDVPKAFAASAELELNTAQRDRQPVDYTMNGQPYQLPDGAVVIAAITSCTNTSNPSVLMAAGLLAKKAVTLGLKRQPWVKASLAPGSKVVSDYLAQAKLTPYLDELGFNLVGYGCTTCIGNSGPLPEPIETAIKKGDLTVGAVLSGNRNFEGRIHPLVKTNWLASPPLVVAYALAGNMNINLATDPLGYDRKGDPVYLKDIWPSAQEIARAVELVSSDMFRKEYAEVFEGTEEWKSIQVESSDTYGWQSDSTYIRLSPFFDEMQAQPAPVKDIHGARILAMLGDSVTTDHISPAGSIKPDSPAGRYLQNHGVERKDFNSYGSRRGNHEVMMRGTFANIRIRNEMLPGVEGGMTRHLPGTEAMSIYDAAMLYQQEKTPLAVIAGKEYGSGSSRDWAAKGPRLLGIRVVIAESFERIHRSNLIGMGILPLEFPQGVTRKTLGLTGEEVIDIADLQNLRPGATIPVTLTRSDGSKETVPCRCRIDTATELTYYQNDGILHYVIRNMLN	not soluble
MSSTLRFHVLGRGAALPRAVAPYFVLRTDNWDDFGHRVQFHLILIVSGAPEKRIGSLKVLQRTSDKGEAMMVATDTELPSKFVELDDTFVSLGQDDDFYKKLHEALGDRAGEVLDALRDIAWRPAFASDFEPTPAFRNAMMRENGAQRARRFGRAWALGEQITERPAFDYVGTIEGADIKVEGEFDFSATDPVPGRIVGLIGRNAVGKTRYLASLGSDLAQISRRSAEALEAREARFPGGRPLFTRIIAISYSAFDRFKRPPMDSSSSYVYCGIRNDRGGLSRSALIDRYRLNQVRIRERGEQRSWMRHMKTILGDQGAQLTASLEEEIRSDSTDDSALSSLSSGQSILAHFVTALLAWIQPNSLVLFDEPETHLHPNAVASLFLVLSQVLQEFDSYAVIATHSPVVIQEIPAKRVLVFRREGNVTIAEPLLLESFGESVTELTRHVFETGEVESLYKRTLRELAAEDTVEDVLARFELGLSLSAQAYLLAQYSKKAGGRTLEHHHHHH	not soluble
MSTCATVSRDLDEPLAGTAATARTWLLLEQPGPWGTKALTSSHLDQALGRALEAAAEGTGVRIALIRRPGRHADCGTPAVRQVYAAHTVPGNVWLHGAMTSDPEQLLDLDFTALGMGDPHTFDRLLGGRPHTGDPLALVCTNGKRDRCCALLGRPLAAELAASGVTGAWEVTHLGGHRFAPTLLILPFGYAYGRAEAPHIKEVLQGVREGRVVVEGCRGRSAWERPGQAAELAVRTAAHEYAADALTVVATDGTAPRWEVTVAHADGRLWRVIVAQGASLPPRPESCGSALGSPARMDVVAVRELIPTEIDATSR	not soluble
MSTDEWRTERDPLVSQDRFLWEKVCCTIIPLHKKRYSSFAKEVVNVSKDAVKINNKKQYITQILPLSQANQQKLTEVKREKKAIAQTHKIHFFDRVVHRKIAKGHYSIEARLDLHGCMQEEAYFFLKKFLQSSQQNGLRYVLVITGKGRSPGSNGVLYQSVPHWLSTPAFRYYVHAFEQAARQHGGDGALYVRLRRFLPGKGYDVV	not soluble
MSTEPLVVGAVAYTPNVVPIWEGIRGYFQDSESPDTQMDFVLYSNYARLVDSLIAGHIDIAWNTNLAYVRTVLQTGGRCTPLAQRDTDVDYTTVFVAHAGSDLHGAKDIAGKRLALGSADSAHAAILPLYYLRRAGIAESDLQVIRFDTDIGKHGDTGRSELDAVDAVLAGEADVAAIGSSTWAAMGAAELMGESLTEVWRTDGYCHCMFTALDTLPAERYQPWLDRLLAMSWDDSEHRKILELEGLRRWVPPHLDGYKPLFEAVQEQGIDPRW	not soluble
MSTHNTHINETMQRNGRNNMAEHRGGSGNFAEDREKASDAGRKGGQHSGGNFKNDPQRASEAGKKGGQQSGGNKSGKS	not soluble
MSTIIDVYAREVLDSRGNPTVEVEVYTESGAFGRAIVPSGASTGEHEAVELRDGDKSRYLGKGVMNAVNNVNEAIAPEIVGFDVTDQAGIDRAMIELDGTPNKGKLGANAILGVSMAVAHAAADFVGLPLYRYLGGFNAKQLPTPMMNIINGGSHADNNVDFQEFMILPVGAPTFKESIRMGAEVFHALKAVLHDKGLNTAVGDEGGFAPNLGSNREALEVIIEAIEKAGYKAGENVFLGMDVASSEFYNKETGKYDLAGEGRTGLTSAEMVDFYEELCKDFPIISIEDGLDENDWDGHKLLTERIGDKVQLVGDDLFVTNTQKLAEGIEKGISNSILIKVNQIGTLTETFEAIEMAKRAGYTAVVSHRSGETEDATIADIAVATNAGQIKTGSMSRTDRIAKYNQLLRIEDELGEIAVYDGIKSFYNIKR	soluble
MSTLQRRRVNRADSGDTSSIHSSANNTKGDKIANIAVDGDDDNGTNKKIAYDPEESKLRDNINIPTLTLMEEVLLMGLRDREGYLSFWNDSISYALRGCIIIELALRGKIRILDDSARKRFDLSERLIEVIDSSKTGEVLLDETLQLMKNDEPLSISNWIDLLSGETWNLLKINYQLKQVRERLAKGLVDKGVLRTEMKNFFLFDMATHPIADASCKEAIKRRVLSVLVSRNMELSYNEYFPETTSFKIIRTLALICGSYGANVLENVLTTLEYEKRDKAISRAEEIMAQFSQYPFDLEKETELGVSVNLNKEVKEEIENNPGHDLQLEVIAGVFEVFSRMDMLL	soluble
MSTMSTPAAEQRKLVEQLMGRDFSFRHNRYSHQKRDLGLHDPKICKSYLVGECPYDLFQGTKQSLGKCPQMHLTKHKIQYEREVKQGKTFPEFEREYLAILSRFVNECNGQISVALQNLKHTAEERMKIQQVTEELDVLDVRIGLMGQEIDSLIRADEVSMGMLQSVKLQELISKRKEVAKRVRNITENVGQSAQQKLQVCEVCGAYLSRLDTDRRLADHFLGKIHLGYVKMREDYDRLMKNNRTTNASKTATTLPGRRFV	not soluble
MSTPDGDEKEQCFHRAIAKTSIYLDREPGNPELTVWLAINKASLAGAQGGFGALSLAKEAKSLLEGVIATSPQTLDGSAYTSLGSLYYKVPGWPIGFGDDDKAEEMLKKALEINPKGIDPNYFYGDFLAEEGRDKEAKVYLTRAMQASPRPLEHHHHHH	not soluble
MSTRPTTDKVKEAIFNMIGPYFSGGNGLDLFAGSGGLGIEALSRGIERVIFVDHDRKAVQTVRKNVAACGLEKRAEIYCNDAERALKAVAKRGLRFAVIFLDPPYKEKQWPTLLSSIVERQLLEPHGVVVAEHSAEAELPEEVGGLTRWKRETYGITGVTIYRWEGDGSDGEHCGLPREL	not soluble
MSTRYPTLTRSGFVLPERMKASYEGAADGRRSATWDAPDTGVNSLIMPALRNLRSRSRAAVRNDPYAANAIDRRVSNLIGTGITPQPRIADKELRRIFQETWEDWVDESDADQLTDFYGQQALIARTVEQSGECFVRLRPRRMDDGLAVPLQLQCLAPEFVPHDKFEVTSTGNIIRAGIEFNGFGKRVAYWCYRSHPSDMTSINAGYNMLVRIPASQMLHIFEPVEPGQLRGVPRLAPVLKRLRSLDNFDDAVLFRQEVANLFAGFIRKPSADGPPMLDPLTGAPIKIGGDGFTPMVALEPGTMQELLPGEEVEFSTPPDGGNNYPDFMRQQLMAAAAGAGLPYELMTGDMRGVNDRTIRVVLNEFRRRLEQLQFSVYVHQLCRPVRAAWMDMAVLSGALQLDDYAARRREYLRTRWVPQGWSYIHPVQDVQSRTMEINAGLASRSEMCLRTGTDAEIVDEENAADAARARGLGLNYSTLSAFDEDPDEKENP	not soluble
